The test system of series [1] is total ICaL (ICav1.2+ICav1.3) in SAN myocytes from wild-type mice. Description: ICaL, patch clamp, SAN myocytes from wild-type mice. The class given is cell-based, mouse. The settings on record: nifedipine 3 µM after Cas 1 µM; holding −55 mV. The method, then:
(§1) Hearts from Wild-Type and Cav1.3^−/− mice were removed under general anesthesia consisting of 0.01 mg/g xylazine (2% Rompun; Bayer AG) and 0.1 mg/g ketamine (Imalgène;Merial) and immersed in a pre-warmed (36 °C) Tyrode solution containing (mM): 140 NaCl, 5.4 KCl, 1 MgCl2, 1.8 CaCl2, 5.5 D-glucose, and 5 Hepes (adjusted to pH 7.4 with NaOH). […] SAN tissue was excised and transferred into a low-Ca^2+ solution containing (mM): 140 NaCl, 5.4 KCl, 0.5 MgCl2, 0.2 CaCl2, 1.2 KH2PO4, 50 taurine, 5.5 D-glucose, 1 mg/mL BSA, and 5 Hepes–NaOH (adjusted to pH 6.9 with NaOH) for 5 min. Then, enzymatic digestion was carried out for 20-25 min at 36 °C in the low-Ca^2+ solution containing LiberaseTH Research Grade (0.15 mg/mL; Roche, Mannheim, Germany) and elastase (0.5 mg/mL; Worthington, Lakewood, NJ, USA). Digestion was stopped by washing the SAN in a “Kraftbrühe” (KB) medium containing (mM) 100 K-glutamate, 10 K-aspartate, 25 KCl, 10 KH2PO4, 2 MgSO4, 20 taurine, 5 creatine, 0.5 EGTA, 20 D-glucose, 5 Hepes, and 1 mg/mL BSA (adjusted to pH 7.2 with KOH). Single SAN cells were then dissociated from the SAN tissue by manual agitation using a flame-forged Pasteur’s pipette. To recover the automaticity of the SAN cells, Ca^2+ was gradually reintroduced in the cell’s storage solution to a final concentration of 1.8 mM. SAN cells were then left to rest for 1 h before recordings.
(§2) For patch-clamp recordings of SAN myocytes, cells were harvested in custom-made chambers with glass bottoms for cell attachment. Cells were then super-fused with Tyrode’s solution warmed at 36 °C before recording. Action potentials and ionic currents were recorded using an Axon multi-clamp patch-clamp 700B amplifier. Voltage-gated L-type Ca^2+ currents (ICaL) were recorded using standard whole cell patch-clamp configuration. For recording ICaL, we used an extracellular recording solution contained (mM): 135 tetraethylammonium chloride (TEA-Cl), 10 4-aminopyridine (4-AP), 1 MgCl2, 0.03 tetrodotoxin (TTX), 1 g/L Glucose, 2 CaCl2, 10 Hepes, (adjusted to pH = 7.2 with TEAOH). […] Pacemaker activity was recorded by the perforated patch-clamp technique using escin (40 µg/ml). For recording cell automaticity glass pipettes were filled with the intracellular solution contained (mM): 80 K-Aspartate, 50 KCl, 1 MgCl2, 5 HEPES, 2 CaCl2, 5 EGTA, 3 ATP-Na+ salt; pH was adjusted to 7.2 with KOH. Escin was dissolved in sterile H2O and added to the intracellular solution right before each experiment.
(§3) In all experiments of cellular electrophysiology, we employed synthetized analog of Cas, commercially available at Latoxan (ID: L8109). The native peptide was purified from the venom of Dendroaspis polylepis purchased from Latoxan, as previoulsly described. The pure peptide was obtained after gel filtration, cation exchange and C18 reversed phase chromatography. Its measured molecular mass (7036.26 Da average) was in accordance with the mass calculated from sequence data (7036.22 Da).

In series [2] the test system is SAN myocytes from Wild-Type mice. Briefly: Spontaneous action potentials, perforated patch-clamp, SAN pacemaker myocytes. Type of series: cell-based, mouse. The settings on record: nifedipine (in Table 1 only 3 µM together with Cas). The procedure: as §1, §2
We used an extracellular recording solution (Tyrode’s based) contained (mM): 140 NaCl, 5.4 KCl, 1 MgCl2, 1.8 CaCl2, 5 HEPES, 5.5 D-Glucose; pH was set to 7.4 with NaOH. AP parameters have been calculated as reported in Baudot et al.[10]. Data were analyzed using pCLAMP9 (Molecular Devices) and GraphPad Prism (GraphPad) software.
as §3

For the next series, the system named is Cav1.2 and Cav1.3. The settings on record: cited from earlier work. The source says: Despite the importance of dissecting the physiopathological roles of Cav1.2 and Cav1.3 channels in cardiac myocytes and neuronal cells, no selective pharmacological tool is currently available. […] Both distinct and complementary functions for Cav1.2 and Cav1.3 have been proposed in the central nervous system. For example, Cav1.2 is involved in hippocampal firing, spatial memory and LTP[52], as well as in the myelinisation process.

The test system of series [3] is Cav1.2 (ICav1.2) in isolated adult mouse ventricular myocytes. Type of series: cell-based. The following applies: L-calchin 5 µM; preliminary; n=7/N=2.
The subject of series [4] is calcium channel in rabbit cardiac myocytes. The settings on record: reduction of calcium channel amplitude; cited from earlier work. The source says:
(§4) A common short peptide between two Prolines at position 42 and 47 (PTAMWP) was predicted as the binding site for Cas and FS2 by Kini and co-workers[49]. […] Similar to Cas, block by L-calchin had no ef ...

Another series deals with isolated rat hearts. The following applies: cited from earlier work.
From the text: as §4

For series [5], the target named is native mouse Cav1.2 L-type calcium channel in cardiac myocytes (mouse (endogenous in cardiac myocytes)) (UniProt Q01815).
In series [6] the target is recombinant Cav1.2 (α1C) L-type calcium channel, Cav1.2-GFP (UniProt Q13936).
Series [7] deals with native mouse Cav1.2 L-type calcium channel in cardiac myocytes (mouse (endogenous in cardiac myocytes)) (UniProt Q01815). This is another data set of the same source.
The target is the same in series [8]. This is another data set of the same source.

The source of these data is publication PMC10762068, “Selective blockade of Cav1.2 (α1C) versus Cav1.3 (α1D) L-type calcium channels by the black mamba toxin calciseptine” (Nature Communications, 2024).

recombinant Cav1.2 (α1C) L-type calcium channel, Cav1.2-GFP, sequence (Q13936 other isoform, or with tags, fused parts or gaps): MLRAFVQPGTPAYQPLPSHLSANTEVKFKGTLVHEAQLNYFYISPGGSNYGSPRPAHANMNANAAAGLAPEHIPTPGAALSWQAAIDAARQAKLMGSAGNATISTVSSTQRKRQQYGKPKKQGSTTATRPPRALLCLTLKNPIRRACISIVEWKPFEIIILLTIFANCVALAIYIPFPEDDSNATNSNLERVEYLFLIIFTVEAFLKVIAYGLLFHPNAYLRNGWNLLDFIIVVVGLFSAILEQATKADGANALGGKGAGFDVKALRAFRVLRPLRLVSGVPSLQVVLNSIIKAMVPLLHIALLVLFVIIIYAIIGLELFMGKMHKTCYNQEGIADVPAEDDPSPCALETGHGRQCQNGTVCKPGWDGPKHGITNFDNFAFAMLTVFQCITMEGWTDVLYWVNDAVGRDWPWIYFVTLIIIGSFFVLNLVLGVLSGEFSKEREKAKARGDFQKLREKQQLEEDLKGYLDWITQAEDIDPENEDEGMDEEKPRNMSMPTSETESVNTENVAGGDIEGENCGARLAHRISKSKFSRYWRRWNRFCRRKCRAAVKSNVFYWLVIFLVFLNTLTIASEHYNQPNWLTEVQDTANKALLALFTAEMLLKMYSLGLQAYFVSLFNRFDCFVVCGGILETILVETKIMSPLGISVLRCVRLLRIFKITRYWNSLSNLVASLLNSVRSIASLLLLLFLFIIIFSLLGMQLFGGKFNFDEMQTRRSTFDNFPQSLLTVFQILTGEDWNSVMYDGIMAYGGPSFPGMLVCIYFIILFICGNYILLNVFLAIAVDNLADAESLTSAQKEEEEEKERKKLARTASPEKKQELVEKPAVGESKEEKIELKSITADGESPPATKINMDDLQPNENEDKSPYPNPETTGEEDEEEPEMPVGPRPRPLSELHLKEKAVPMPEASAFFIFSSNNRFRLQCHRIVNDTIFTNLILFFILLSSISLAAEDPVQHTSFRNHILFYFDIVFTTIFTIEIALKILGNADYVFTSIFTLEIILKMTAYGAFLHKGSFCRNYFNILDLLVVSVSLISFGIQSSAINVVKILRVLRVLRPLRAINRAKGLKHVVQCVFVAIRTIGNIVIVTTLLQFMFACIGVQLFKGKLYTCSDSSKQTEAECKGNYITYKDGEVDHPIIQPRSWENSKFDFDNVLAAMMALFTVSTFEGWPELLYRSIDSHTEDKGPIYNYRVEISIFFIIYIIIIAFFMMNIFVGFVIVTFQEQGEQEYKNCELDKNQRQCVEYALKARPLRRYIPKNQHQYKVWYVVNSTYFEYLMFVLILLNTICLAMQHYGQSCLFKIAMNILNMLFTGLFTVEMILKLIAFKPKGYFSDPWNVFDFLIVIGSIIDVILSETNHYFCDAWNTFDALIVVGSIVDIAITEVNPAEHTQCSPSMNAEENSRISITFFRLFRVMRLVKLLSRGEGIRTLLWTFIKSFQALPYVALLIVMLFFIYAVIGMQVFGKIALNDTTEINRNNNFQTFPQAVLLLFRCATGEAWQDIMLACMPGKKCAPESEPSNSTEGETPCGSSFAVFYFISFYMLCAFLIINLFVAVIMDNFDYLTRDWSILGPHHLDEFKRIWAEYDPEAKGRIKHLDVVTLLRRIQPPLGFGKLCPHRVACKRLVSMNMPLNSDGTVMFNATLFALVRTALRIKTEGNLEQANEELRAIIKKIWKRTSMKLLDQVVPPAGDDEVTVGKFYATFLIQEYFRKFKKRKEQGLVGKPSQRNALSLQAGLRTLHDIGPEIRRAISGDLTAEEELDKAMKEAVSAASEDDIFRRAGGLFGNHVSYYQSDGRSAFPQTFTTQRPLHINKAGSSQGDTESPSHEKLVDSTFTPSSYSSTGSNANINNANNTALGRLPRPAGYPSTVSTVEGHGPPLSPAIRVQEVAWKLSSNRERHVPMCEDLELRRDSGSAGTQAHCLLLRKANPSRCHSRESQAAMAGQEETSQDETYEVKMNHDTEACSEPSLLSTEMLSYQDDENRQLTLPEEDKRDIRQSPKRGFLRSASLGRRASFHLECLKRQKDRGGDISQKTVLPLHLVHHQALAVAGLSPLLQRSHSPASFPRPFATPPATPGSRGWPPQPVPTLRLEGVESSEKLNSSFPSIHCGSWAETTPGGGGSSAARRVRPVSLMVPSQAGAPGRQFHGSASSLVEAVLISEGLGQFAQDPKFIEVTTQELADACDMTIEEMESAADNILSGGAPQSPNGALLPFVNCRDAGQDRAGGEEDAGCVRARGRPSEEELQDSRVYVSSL
native mouse Cav1.2 L-type calcium channel in cardiac myocytes (mouse (endogenous in cardiac myocytes)), sequence (Q01815 whole entry): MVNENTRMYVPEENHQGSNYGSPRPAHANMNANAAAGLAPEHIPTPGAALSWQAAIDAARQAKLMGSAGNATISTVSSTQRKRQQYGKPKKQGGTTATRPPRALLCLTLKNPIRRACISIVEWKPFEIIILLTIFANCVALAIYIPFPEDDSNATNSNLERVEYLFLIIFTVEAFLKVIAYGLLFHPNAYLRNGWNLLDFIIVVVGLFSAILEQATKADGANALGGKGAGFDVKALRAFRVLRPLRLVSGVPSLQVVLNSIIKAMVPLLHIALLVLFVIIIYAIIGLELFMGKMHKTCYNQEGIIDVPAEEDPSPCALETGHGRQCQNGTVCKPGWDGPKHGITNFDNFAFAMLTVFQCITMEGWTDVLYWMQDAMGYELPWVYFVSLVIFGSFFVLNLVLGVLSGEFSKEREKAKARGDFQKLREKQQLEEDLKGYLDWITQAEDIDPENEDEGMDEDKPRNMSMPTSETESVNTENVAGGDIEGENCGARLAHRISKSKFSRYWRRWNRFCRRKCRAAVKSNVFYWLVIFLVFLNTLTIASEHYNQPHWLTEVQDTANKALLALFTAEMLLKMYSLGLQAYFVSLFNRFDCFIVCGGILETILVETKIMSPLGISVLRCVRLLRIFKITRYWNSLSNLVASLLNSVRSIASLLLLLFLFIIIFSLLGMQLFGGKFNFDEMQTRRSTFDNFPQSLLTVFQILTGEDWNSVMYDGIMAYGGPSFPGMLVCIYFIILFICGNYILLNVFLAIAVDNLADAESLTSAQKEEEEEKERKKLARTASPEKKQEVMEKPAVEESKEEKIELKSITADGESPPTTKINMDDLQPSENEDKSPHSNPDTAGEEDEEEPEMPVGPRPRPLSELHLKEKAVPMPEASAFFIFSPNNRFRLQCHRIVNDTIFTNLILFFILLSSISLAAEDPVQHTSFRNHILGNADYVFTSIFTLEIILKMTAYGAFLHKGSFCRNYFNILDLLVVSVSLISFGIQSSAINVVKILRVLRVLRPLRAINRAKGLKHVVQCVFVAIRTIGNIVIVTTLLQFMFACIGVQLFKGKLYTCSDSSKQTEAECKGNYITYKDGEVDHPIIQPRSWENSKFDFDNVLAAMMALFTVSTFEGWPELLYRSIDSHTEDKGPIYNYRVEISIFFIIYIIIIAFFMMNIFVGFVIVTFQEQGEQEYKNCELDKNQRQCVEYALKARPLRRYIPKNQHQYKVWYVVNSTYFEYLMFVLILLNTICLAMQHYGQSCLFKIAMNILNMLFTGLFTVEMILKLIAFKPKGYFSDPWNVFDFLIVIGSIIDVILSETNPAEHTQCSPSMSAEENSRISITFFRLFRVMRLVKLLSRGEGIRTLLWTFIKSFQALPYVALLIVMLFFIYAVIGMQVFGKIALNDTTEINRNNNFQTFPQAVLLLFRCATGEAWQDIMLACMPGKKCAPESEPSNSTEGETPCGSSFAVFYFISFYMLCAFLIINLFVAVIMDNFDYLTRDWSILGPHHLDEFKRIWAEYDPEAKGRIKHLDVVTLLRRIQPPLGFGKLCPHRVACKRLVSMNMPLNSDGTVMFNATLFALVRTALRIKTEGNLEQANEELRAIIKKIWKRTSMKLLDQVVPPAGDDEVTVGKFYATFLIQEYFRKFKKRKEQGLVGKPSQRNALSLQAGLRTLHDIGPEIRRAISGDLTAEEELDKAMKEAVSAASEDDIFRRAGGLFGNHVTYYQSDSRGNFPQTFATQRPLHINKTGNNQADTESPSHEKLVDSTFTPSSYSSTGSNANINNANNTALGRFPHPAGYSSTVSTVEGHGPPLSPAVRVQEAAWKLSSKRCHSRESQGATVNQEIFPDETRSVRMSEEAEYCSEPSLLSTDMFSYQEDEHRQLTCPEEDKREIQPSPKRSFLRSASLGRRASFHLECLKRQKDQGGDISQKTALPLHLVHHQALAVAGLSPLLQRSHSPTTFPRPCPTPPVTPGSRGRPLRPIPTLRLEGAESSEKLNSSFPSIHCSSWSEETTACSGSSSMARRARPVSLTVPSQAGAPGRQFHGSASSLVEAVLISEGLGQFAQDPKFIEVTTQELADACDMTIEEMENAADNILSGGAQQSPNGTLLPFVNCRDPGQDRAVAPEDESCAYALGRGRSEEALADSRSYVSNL

Take `COC(=O)C1=C(C)NC(C)=C(C(=O)OC)C1c1ccccc1[N+](=O)[O-]` [nifedipine, reference compound]: the “block of residual ICaL (Cav1.3-mediated)” value in series [1] is reported as “totally blocked”. Besides, in series [2], the “effect on pacemaker activity of SAN myocytes” value was “robustly slows pacemaker activity”.
As to `COc1ccc([C@@H]2Sc3ccccc3N(CCN(C)C)C(=O)[C@@H]2OC(C)=O)cc1` [Diltiazem], the “selectivity between Cav1.2 and Cav1.3” value in the series with Cav1.2 and Cav1.3 is “without significant selectivity”.
As for “PTAMWP [L-calchin, short peptide between two Prolines at position 42 and 47 (PTAMWP) of Cas and FS2]”, the “reduction of ICav1.2” value in series [3] is “≈ 30%”. For the same molecule, the IC50 in series [4] was ~5000 nM. Also, the “effect on peak systolic pressure” value with isolated rat hearts was “reducing peak systolic pressure”. Moreover, in the series on isolated rat hearts (ex vivo), the “effect on heart rate” value is listed as “had no effect on heart rate”.
Take `COc1ccc(CCN(C)CCCC(C#N)(c2ccc(OC)c(OC)c2)C(C)C)cc1OC` (stereo not drawn) [Verapamil]: in the series on Cav1.2 and Cav1.3, the “selectivity between Cav1.2 and Cav1.3” value is on record as “without significant selectivity”.
For PTAMWP [L-calchin], the reduction of I (Cav1.2) in dissociated mouse ventricular myocytes by synthetic L-calchin (preliminary experiments; concentration not stated) in [5] is 30%.

B1: calciseptine, synthetized analog (Latoxan L8109) (peptide)
chain: RICYIHKASLPRATKTCVENTCYKMFIRTQREYISERGCGCPTAMWPYQTECCKGDRCNK
Regarding B1, in series [6], the IC50 of inhibition of I (Cav1.2), whole-cell patch clamp on transfected HEK-293T cells (holding potential −60 mV, test 0 mV), dose-effect relationship came to 92 nM; the inhibition of I (Cav1.2) in averaged current-to-voltage relationships, 300 nM Cas, membrane voltages from −20 mV to +30 mV, transfected HEK-293T cells is 60%; the percent inhibition of I (Cav1.2) in transfected HEK-293T cells, one-step protocol (−60 mV to 0 mV), Cas 100 nM to 1 µM (37% at 100 nM, 70% at 300 nM, 80% at 1 µM) was 80%. Besides, in [7], the degree of inhibition of ICaL by 300 nM Cas, step to 0 mV from −60 mV, stimulation at 0.2 Hz amounted to 62%; the degree of inhibition of ICaL by 300 nM Cas, step to 0 mV from −60 mV, stimulation at 1 Hz was determined as 63%; the degree of inhibition of ICaL by 300 nM Cas, step to 0 mV from −60 mV, stimulation at 5 Hz is 58%; the percent block of Cav1.2-mediated ICaL in Cav1.3−/− SAN myocytes, 300 nM Cas, step to 0 mV from a holding potential of −40 mV turned out to be 68%. The percent block of Cav1.2-mediated ICaL in Cav1.3−/− SAN myocytes, 300 nM Cas, step to 0 mV from a holding potential of −60 mV in series [7] is 67%. The reduction of total ICaL (I (Cav1.2)+I (Cav1.3)) in wild-type mouse SAN myocytes, voltage clamp, 1 µM Cas in series [8] is 45%.
